Where “and” joins values, the source holds several entries; their conditions need not be identical. Equal entries are not always repeated.
B1: Tryptophan synthase alpha chain, P0A877 (parent)
chain: MERYESLFAQLKERKEGAFVPFVTLGDPGIEQSLKIIDTLIEAGADALELGIPFSDPLADGPTIQNATLRAFAAGVTPAQCFEMLALIRQKHPTIPIGLLMYANLVFNKGIDEFYAQCEKVGVDSVLVADVPVEESAPFRQAALRHNVAPIFICPPNADDDLLRQIASYGRGYTYLLSRAGVTGAENRAALPLNHLVAKLKEYNAAPPLQGFGISAPDQVKAAIDAGAAGAISGSAIVKIIEQHINEPEKMLAALKVFVQPMKAATRS

Variants of: B1
Conditions: Escherichia coli (strain K12); pH 7.8; 25 °C; Urea; CD; potassium phosphate 10 mM; transition: 3; structure 1WQ5; whole UniProt chain shown

| Variant | denaturant m value | denaturant midpoint (higher = more stable) | unfolding free energy |
| --- | --- | --- | --- |
| P28A | 1.48 kcal/mol/M and 1.04 kcal/mol/M | 1.36 M and 3.66 M | 2.01 kcal/mol and 3.81 kcal/mol |
| P28G | 2.15 kcal/mol/M and 1.18 kcal/mol/M | 2.08 M and 4.1 M | 4.47 kcal/mol and 4.84 kcal/mol |
